Patent publication US20200129532

Target: T1, HA-tagged VDR (vitamin D receptor), wild type, P11473
T1 chain: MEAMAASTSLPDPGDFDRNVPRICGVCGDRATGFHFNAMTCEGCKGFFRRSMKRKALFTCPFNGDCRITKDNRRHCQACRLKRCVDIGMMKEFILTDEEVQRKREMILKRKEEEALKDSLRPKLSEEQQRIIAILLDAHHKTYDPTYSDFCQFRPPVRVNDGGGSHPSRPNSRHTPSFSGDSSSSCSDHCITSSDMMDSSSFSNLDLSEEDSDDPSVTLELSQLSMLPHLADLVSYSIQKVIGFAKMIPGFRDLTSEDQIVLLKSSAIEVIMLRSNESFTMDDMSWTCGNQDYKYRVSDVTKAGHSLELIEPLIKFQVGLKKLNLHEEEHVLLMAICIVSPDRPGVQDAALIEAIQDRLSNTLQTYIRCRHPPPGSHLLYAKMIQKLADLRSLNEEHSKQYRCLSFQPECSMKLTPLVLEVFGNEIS

B1: PCAF, wild-type, overexpressed in 293T cells (protein)
chain: MSEAGGAGPGGCGAGAGAGAGPGALPPQPAALPPAPPQGSPCAAAAGGSGACGPATAVAAAGTAEGPGGGGSARIAVKKAQLRSAPRAKKLEKLGVYSACKAEESCKCNGWKNPNPSPTPPRADLQQIIVSLTESCRSCSHALAAHVSHLENVSEEEMNRLLGIVLDVEYLFTCVHKEEDADTKQVYFYLFKLLRKSILQRGKPVVEGSLEKKPPFEKPSIEQGVNNFVQYKFSHLPAKERQTIVELAKMFLNRINYWHLEAPSQRRLRSPNDDISGYKENYTRWLCYCNVPQFCDSLPRYETTQVFGRTLLRSVFTVMRRQLLEQARQEKDKLPLEKRTLILTHFPKFLSMLEEEVYSQNSPIWDQDFLSASSRTSQLGIQTVINPPPVAGTISYNSTSSSLEQPNAGSSSPACKASSGLEANPGEKRKMTDSHVLEEAKKPRVMGDIPMELINEVMSTITDPAAMLGPETNFLSAHSARDEAARLEERRGVIEFHVVGNSLNQKPNKKILMWLVGLQNVFSHQLPRMPKEYITRLVFDPKHKTLALIKDGRVIGGICFRMFPSQGFTEIVFCAVTSNEQVKGYGTHLMNHLKEYHIKHDILNFLTYADEYAIGYFKKQGFSKEIKIPKTKYVGYIKDYEGATLMGCELNPRIPYTEFSVIIKKQKEIIKKLIERKQAQIRKVYPGLSCFKDGVRQIPIESIPGIRETGWKPSGKEKSKEPRDPDQLYSTLKSILQQVKSHQSAWPFMEPVKRTEAPGYYEVIRFPMDLKTMSERLKNRYYVSKKLFMADLQRVFTNCKEYNPPESEYYKCANILEKFFFSKIKEAGLIDK
Q: B1 was tested. Which VDR acetylation did it give?
A: VDR acetylation indeed increased when expressed together with PCAF
